This is an account of results in the nanobody polyreactivity screen of Harvey et al. (2022).

The series in a line: yeast display, Sf9 membrane polyspecificity reagent, FACS + sequencing; frameworks hold sequencing errors. In outline: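 Genes from sorted yeast were amplified by colony PCR, read by MiSeq 2 × 250 sequencing and filtered on CDR length. These cells carried a synthetic nanobody library in Saccharomyces cerevisiae BJ5465 and were sorted by FACS into low and high (top ~1%) gates on anti-HA and streptavidin fluorescence. Polyreactivity is labelled according to the gate of origin.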
Consider “QVQLVESGGGLVQAGGSLRLSCAASGSTFYVNAMGWYRQAPGKERELVAVISTGGSTYYADSVKGRFTISRDNAKNTVYLQMNSLKPEDTAVYYCAKRDLPDRSGTPNVIPFDYWGQGSQVTVSS”, for which the “polyreactivity (PSR sort gate)” value was “low polyreactivity”.
Regarding “QVQLVESGGGLVQAGGSLRLSCAASGSTFYVNDMGRYRQAPGNERELVAAITWGVGDTYYADSVKGRFTISRDNAKNTVYLQMNSQKPEDTAVYYCAADTSYYYAYTQMEYWGQGTQVTVSS”, the “polyreactivity (PSR sort gate)” value was “low polyreactivity”.
For “QVQLVESGGGLVQAGGSLRLSCAASGSTFYVNSMGWYRQAPGKERELVAGISFSDGSTYYADSVKGRFTISRDNAKNTVYLQMNSLKPEDTAVYYCATVGALDIYYGYGYWVQGTQVTVSS”, the “polyreactivity (PSR sort gate)” value is “low polyreactivity”.
Turning to “QVQLVESGGGLVQAGGSLRLSCAASGSTFYVNTMGWYRQAPGKERELVAAINWRGGSTYYADSVKGRFTISRDNAKNTVYLQMNSLKPEDTAVYYCAAYGYYRYVTAYIYDMDYWGQGTQVTVSS”, the “polyreactivity (PSR sort gate)” value is given as “low polyreactivity”.
The same measure for “QVQLVESGGGLVQAGGSLRLSCAASGSTFYVNTMGWYRQAPGKERELVAAISGSGGSTYYADSVKGRFTISRDNAKNTVYLQMNSLKPEDTAVHYCAARSRYGYITFDYWGQGTQVTVSS”: “high polyreactivity”.
The value for “QVQLVESGGGLVQAGGSLRLSCAASGSTFYVYAMGWYRQAPGKARELVAAIRSGGSTNYADSVKGRFTISRDNAKNTVYFQLNSLKPEDTAVYYCNADTWLYRYDYWGQGTQVTVSS” was “low polyreactivity”.
The value for “QVQLVESGGGLVQAGGSLRLSCAASGSTFYVYAMGWYRQAPGKERELVAAIDSGDSTNYADSVKGRFTISRDNAKNTVYLQMNSLKPEDTAVYYCAADRTVYPFNYWGQGTQVTVSS” was “low polyreactivity”.
Consider “QVQLVESGGGLVQAGGSLRLSCAASGSTFYVYAMGWYRQAPGKERELVAAISSSGARTYYADSVKGRFTISRDNAKNTVYLQMNSLKPEDTAVYYCAARRYYKFYYWGQGTQVTVSS”, for which the “polyreactivity (PSR sort gate)” value is recorded as “high polyreactivity”.
The same measure for “QVQLVESGGGLVQAGGSLRLSCAASGSTFYVYAMGWYRQAPGKERELVAAITTGGSTYYADSVKGRFTISRDNAKNTVYLQMNSLKPEDTAVYYCAADDPDPYDVPSYDYWGHGTQVTVSS”: “low polyreactivity”; for “QVQLVESGGGLVQAGGSLRLSCAASGSTFYVYVMGWYRQAPGKERELVAAISRSGGRTYYADSVKGRFTISRDNAKNTVYLQMNSLKPEDTSGYYCNARGSRRGGPGYEYWGQGTQVTVSS”: “high polyreactivity”.
The value for “QVQLVESGGGLVQAGGSLRLSCAASGSTFYYFALGWYRQAPGKERELVAAISSGGTTNYADSVKGRFTISRDNAKNTVYLQINSLKPEDTAVYYCAARFRRVRFTHYDYWGQGTQVTVSS” was “high polyreactivity”; that for “QVQLVESGGGLVQAGGSLRLSCAASGSTFYYNAMGWYRQAPGKERELVAGISGGGSTNYADSVKGRFTISRDNAKNTVYLQMNSLKPEDTAVYYCAARERYRGAIGYDYWGKGTQVTVSS” was “low polyreactivity”.
The value for “QVQLVESGGGLVQAGGSLRLSCAASGSTFYYNAMRWYRQAPGKERELVAAITGSGDSTYYADSVKGRFTISRDNAKNTVYLQMNSLKPEDTAVYYCAADTYSTYWGQGTQVTVSS” was “low polyreactivity”.
Regarding “QVQLVESGGGLVQAGGSLRLSCAASGSTFYYNGMGWYRQAPGKERELVAVISISGGSTYYADSVKGRFTISRDNAKNTVYLQMNSLKPEDTAVYYCATSYVGRSAYRSYGARGGYWGQGTQVTVSS”, the “polyreactivity (PSR sort gate)” value was “low polyreactivity”.
For “QVQLVESGGGLVQAGGSLRLSCAASGSTFYYYAMGWYRPAPGKEREFVASISSRGTSTYYADSVKGRFTISRDNAKNTVYIQMISLKPEDTAVDYGAARVWGPTRAYDYWGQGTQVTVSS”, the “polyreactivity (PSR sort gate)” value was “high polyreactivity”.
The value for “QVQLVESGGGLVQAGGSLRLSCAASGSTFYYYAMGWYRPAPGKEREMVAAINSGGRTNYADSVKGRFTISRDNAKNSVYLQMNSLKPEDTAVYYCAKRTYPYGTYRSVWGYDYWGQGTQVTVSS” was “low polyreactivity”; that for “QVQLVESGGGLVQAGGSLRLSCAASGSTFYYYAMGWYRQAPGKERELVAAISASGDSTYYADSVKGRFTISRDNAKNTVYLQMNSLKPEDTAVYYCAAQYYFYPHEFDYWGQGTQVTVSS” was “low polyreactivity”; that for “QVQLVESGGGLVQAGGSLRLSCAASGSTFYYYAMGWYRQAPGKERELVAAISTSDGSTYYADSVKGRFTISRDNAKNTVYLQMNSLKPEDTAVYYCAAESYERFPSYYYWGQGTQVTVSS” was “low polyreactivity”.
On to “QVQLVESGGGLVQAGGSLRLSCAASGSTFYYYAMGWYRQAPGKERELVAAISVRAGITYYADSVKGRFTISRDNAKNTVYLQMNSLKPEDTAVYYCAKDHWTTSYDEGDYWGQGTQVTVSS”, for which the “polyreactivity (PSR sort gate)” value was “low polyreactivity”.
The same measure for “QVQLVESGGGLVQAGGSLRLSCAASGSTFYYYAMGWYRQAPGKERELVAAISWRCSSTYYADSVKGRFTISRDNAKNTVYLQMNSLKPEDTAVYYCAAGYPGRVSGYLFGTRATYYYWGQGTQVTVSS”: “high polyreactivity”; for “QVQLVESGGGLVQAGGSLRLSCAASGSTFYYYAMGWYRQAPGKERELVAAITIGGSTNYADSVKGRFTISRDNAKNTVYLQMNSLKPVDTAVYYCAADYRITYARDFDYWGQGTQVTVSS”: “low polyreactivity”.
For the sequence “QVQLVESGGGLVQAGGSLRLSCAASGSTFYYYAMGWYRQAPGKERELVAAITSGGSTDYADSVKGRFTISRDNAKNTVYLQMKSLKPEDTAVYYCAKDSQSYTREAYYYWGQGTQVTVSS”, the “polyreactivity (PSR sort gate)” value is listed as “low polyreactivity”.
The same measure for “QVQLVESGGGLVQAGGSLRLSCAASGSTFYYYAMGWYRQAPGKERELVAAITYSGGSTTYADSVKGRFTISRDNAKNTVYLQMNSLKPEDTAVYYCAAYVYRYHRVAYEYWGQGTQVTVSS”: “high polyreactivity”.
The value for “QVQLVESGGGLVQAGGSLRLSCAASGSTFYYYAMGWYRQAPGKERELVATITSGASTNYADSVKGRFTISRDNAKNTVYLQMNSLKPEDTAVYYSNAGSLTSYLPWSSYDYWGQGTQVTVSS” was “low polyreactivity”; that for “QVQLVESGGGLVQAGGSLRLSCAASGSTFYYYAMGWYRQAPGKERELVAVITRGGGTYYADSVKGRFTISRDNAKNTVYLQMNSLKPEDTAVYYCNARQRSSTRKGYNYWGQGTQVTVSS” was “high polyreactivity”; that for “QVQLVESGGGLVQAGGSLRLSCAASGSTFYYYSMGWYRQAPGKERELVASISDDGSTNYADSVKGRFTISRDNAKNTVYLQMNSLKPEDTAVYYCAAVWWHQFGSAWYQMGYWGQGTQVTVSS” was “low polyreactivity”.
In the case of “QVQLVESGGGLVQAGGSLRLSCAASGSTFYYYTMGWYRQATGKERELVAAITYRGGSTYADSVKGRFTISRDNAKNTVYLQMNSLKPEDTAVYYCAAVRRHPTHYDYWGQGTQVTVSS”, the “polyreactivity (PSR sort gate)” value was “high polyreactivity”.
The value for “QVQLVESGGGLVQAGGSLRLSCAASGSTGVYAMGWYRQAPGKERELVADITSGGNTDYADSVKGRFTISRDNAKNTVYLQMTSLKPEDTAVYYCAADDYYVLDYFWFIEYGYWGQGTQVTVSS” was “high polyreactivity”; that for “QVQLVESGGGLVQAGGSLRLSCAASGSTIADNAMGWYRQAPGKERELVAAITRSGVRTYYADSVKGRFTISRDNAKYTVYLQMNSLKPDDSAVYYCAKRTYPSRIYDYWGQGTQVTVSS” was “low polyreactivity”.
“QVQLVESGGGLVQAGGSLRLSCAASGSTIDRYAMGWYIQAPGKEREFVAAISFSSASTYYADSVKGRFTISRDNAKNTVYLQMNSLKPEDTAVYYCNADFFDSGGSIEYDSWGQGTQVTVSS”: the “polyreactivity (PSR sort gate)” value is recorded as “low polyreactivity”.
